In paper PMC4641746 (Cell, 2015):

What was measured:
[1] = molecular target: Y46K/V66D mutant of H84T BanLec (recombinant, His-tagged) (Musa acuminata); test: 15N NMR spin relaxation
[2] = molecular target: Y46K/V66D mutant of WT BanLec (recombinant, His-tagged) (Musa acuminata); test: 15N NMR spin relaxation
[3] = molecular target: T1, BanLec (banana lectin), recombinant His-tagged WT (Musa acuminata, UniProt O22321, H84T); test: isothermal titration calorimetry; format: binding; conditions: dimannoside linkage not printed in main text
T1 sequence (O22321 1-141 H84T): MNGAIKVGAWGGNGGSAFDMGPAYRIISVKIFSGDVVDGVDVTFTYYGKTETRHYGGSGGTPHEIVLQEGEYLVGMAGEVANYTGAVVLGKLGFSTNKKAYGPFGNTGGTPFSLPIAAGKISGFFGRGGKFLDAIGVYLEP

## Y46K/V66D mutant of H84T BanLec (recombinant, His-tagged) (natural protein)
[1]
  stoichiometry N: 2

## Y46K/V66D mutant of WT BanLec (recombinant, His-tagged) (natural protein)
[2]
  stoichiometry N: 2

## dimannoside [M2]
[3]
  Ka: 227
